According to patent US20150376265A1 (Genentech, published 2015):

Assays:
[1] = molecular target: T1, gH/gL, full-length, on the surface of transfected HEK-293T cells (HCMV, UniProt P12824 24-743; P16832 31-278); assay: FACS on transfected HEK-293T cells
T1 construct: also called cells expressing gH/gL alone; cell-surface expressed gH/gL

[2] = molecular target: T2, gH/gL/gO on the surface of cells (HCMV, UniProt P12824 24-743; P16832 31-278; F5HGP1 32-472); assay: FACS on transfected cells, data not shown
T2 construct: also called Complex II; cells expressing gH/gL/gO
T2 sequence (F5HGP1 32-472 limits assumed, one chain of several): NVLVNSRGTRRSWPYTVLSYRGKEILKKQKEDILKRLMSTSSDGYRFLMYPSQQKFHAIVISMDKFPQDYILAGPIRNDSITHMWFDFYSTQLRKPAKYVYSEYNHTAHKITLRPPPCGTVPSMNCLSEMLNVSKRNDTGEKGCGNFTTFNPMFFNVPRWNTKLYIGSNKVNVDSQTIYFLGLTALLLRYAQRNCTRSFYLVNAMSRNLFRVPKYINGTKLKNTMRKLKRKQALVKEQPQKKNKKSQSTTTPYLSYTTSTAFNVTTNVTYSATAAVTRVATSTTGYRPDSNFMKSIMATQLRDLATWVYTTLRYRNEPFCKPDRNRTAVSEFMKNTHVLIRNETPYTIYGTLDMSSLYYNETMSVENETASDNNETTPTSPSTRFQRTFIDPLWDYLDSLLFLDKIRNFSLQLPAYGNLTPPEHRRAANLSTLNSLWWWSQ

B1: hu8G8 (lambda4 8G8 graft and hu8G8.VH1) (antibody, V domains shown)
VH: EVQLVQSGAEVKKPGASVKVSCKASGYTFTNYGMNWVRQAPGQGLEWIGWINTYTGEPTYADDFKGRVTITRDTSTSTAYLELSSLRSEDTAVYYCARSWYYVSNYWYFDVWGQGTLVTVSS
VL: SVLTQSPSASASLGASVKLTCTLSSQHSTYTIEWYQQQPGKGPRYLMKLKKDGSHSTGDGIPDRFSGSSSGADRYLTISNLQSEDEADYYCGVGDTIKEQFVYVFGGGTKLTVLG
notes: also called hu8G8 with VH1; Humanized 8G8 with VH1
Which results are given for B1?
binding result [1]: no binding (tested: saturating primary antibody); binding result [2]: no binding
